# Patent US20230265168A1 (BEIJING KAWIN TECHNOLOGY SHARE, published 2023)
# Molecular target: T1, HBsAg protein (hepatitis B virus surface antigen) (hepatitis B virus, UniProt P03140 175-400)
# T1 construct: Coated on the ELISA plate at 20 ug/ml; also called HBsAg antigen
# Assay: ELISA on coated HBsAg; grade from OD450 ratio to 021 at 4 ug/ml
# T1 sequence (P03140 175-400, tags left off): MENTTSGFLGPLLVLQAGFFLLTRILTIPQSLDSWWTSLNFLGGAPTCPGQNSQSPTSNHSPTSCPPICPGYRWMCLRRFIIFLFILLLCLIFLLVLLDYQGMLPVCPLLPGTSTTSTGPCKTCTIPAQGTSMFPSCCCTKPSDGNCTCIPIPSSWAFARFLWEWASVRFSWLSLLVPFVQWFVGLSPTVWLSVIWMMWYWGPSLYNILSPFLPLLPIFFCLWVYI
row,Binder,ratio of OD450 at 4 ug/ml to OD450 of antibody 021 at 4 ug/ml [ratio]
1,"antibody 083 (antibody, human IgG1, kappa, V domains shown) VH: EVQLVQSGAEVKKPGASVKVSCKASGYTFTYYYMHWVRQAPGQGLEWMGWINPNSGGTNYAQKFQGRVTITADKSTSTAYMELSSLRSEDTAVYYCARDVWQQGGYYYYMDVWGKGTLVTVSS VL: not shown",> 1.1
2,"antibody 096 (antibody, human IgG1, kappa, V domains shown) VH: not shown VL: ETTLTQSPSTLSASVGDRVTITCRASQSISSYLNWYQQKPGKAPQLLIYTASSLQSGVPSRFSGSGSGTDFTLTISSLQPEDFATYYCQQSYSTPLTFGQGTRLEIKR",> 1.1
3,"antibody 090 (antibody, human IgG1, kappa, V domains shown) VH: EVQLVQSGAEVKKPGASMKVSCKASGYTFTDYYIHWVRQAPGQGPEWMGWINPNSGGTNYAQKFQGRVTMTRDTSISTAYMELSRLRSDDTAVYYCARDLWNDDVDYYGMDVWGKGTMVTVSS VL: EIVLTQSPGTLSLSPGERATLSCRASQSVSSYLAWYQQKPGQAPRLLIYGASSRATGIPARFSGSGSGTEFTLTISSLQSEDFATYYCQQSYSTPLTFGPGTKVEIKR",0.8 to 1.1
4,"antibody 091 (antibody, human IgG1, kappa, V domains shown) VH: EVQLVQSGAEVKKPGASMKVSCKASGYTFTDYYIHWVRQAPGQGPEWMGWINPNSGGTNYAQKFQGRVTMTRDTSISTAYMELSRLRSDDTAVYYCARDLWNDDVDYYGMDVWGKGTMVTVSS VL: EIVLTQSPATLSLSPGERATLSCRASQSVSSYLAWYQQKPGQAPRLLIYDASNRATGIPARFSGSGSGTDFTLTISSLEPEDFATYYCQQSYSTPLTFGGGTKVDIKR",0.8 to 1.1
5,"antibody 021-M34 (antibody, human IgG1, kappa, V domains shown, 021 with X34 (LCDR1) Q to A) VH: not shown VL: DIQLTQSPSSLSASVGDRVTITCRASASISTYLNWYQQKPGKAPKLLIYAASSLQSGVPSRFSGSGSGTDFTLTISSLQPEDFATYYCQQSYSTPLTFGGGTKVDIKR",0.8 to 1.1
6,"antibody 093 (antibody, human IgG1, kappa, V domains shown) VH: EVQLVQSGAEVKKPGASMKVSCKASGYTFTDYYIHWVRQAPGQGPEWMGWINPNSGGTNYAQKFQGRVTMTRDTSISTAYMELSRLRSDDTAVYYCARDLWNDDVDYYGMDVWGKGTMVTVSS VL: DIQLTQSPSSLSASVGDRVTITCRASQSISSYLNWYQQKPGKAPKLLIYDASSLQSGVPSRFSGSGSGTEFTLTIRSLQPEDFATYYCQQSYSTPLTFGGGTKLEIKR",> 1.1
7,"antibody 021-M35 (antibody, human IgG1, kappa, V domains shown, 021 with X35 (LCDR1) S to A) VH: not shown VL: DIQLTQSPSSLSASVGDRVTITCRASQAISTYLNWYQQKPGKAPKLLIYAASSLQSGVPSRFSGSGSGTDFTLTISSLQPEDFATYYCQQSYSTPLTFGGGTKVDIKR",0.8 to 1.1
8,"antibody 095 (antibody, human IgG1, kappa, V domains shown) VH: not shown VL: DIQLTQSPSSLSASVGDRVTITCRASQSISSYLNWYQQKPGKAPKLLISAASSLQSGVPSRFSGSGSGTDFTLTISSLQPGDLATYYCQQSYSTPLTFGGGTKVEIKR",> 1.1
9,"antibody 021-M39 (antibody, human IgG1, kappa, V domains shown, 021 with X39 (LCDR1) Y to A) VH: not shown VL: DIQLTQSPSSLSASVGDRVTITCRASQSISTALNWYQQKPGKAPKLLIYAASSLQSGVPSRFSGSGSGTDFTLTISSLQPEDFATYYCQQSYSTPLTFGGGTKVDIKR",0.4 to 0.6
10,"antibody 021-M41 (antibody, human IgG1, kappa, V domains shown, 021 with X41 (LCDR2) A to S) VH: not shown VL: DIQLTQSPSSLSASVGDRVTITCRASQSISTYLNWYQQKPGKAPKLLIYASSSLQSGVPSRFSGSGSGTDFTLTISSLQPEDFATYYCQQSYSTPLTFGGGTKVDIKR",0.8 to 1.1
11,"antibody 021-M36 (antibody, human IgG1, kappa, V domains shown, 021 with X36 (LCDR1) I to A) VH: not shown VL: DIQLTQSPSSLSASVGDRVTITCRASQSASTYLNWYQQKPGKAPKLLIYAASSLQSGVPSRFSGSGSGTDFTLTISSLQPEDFATYYCQQSYSTPLTFGGGTKVDIKR",0.4 to 0.6
12,"antibody 021-M40 (antibody, human IgG1, kappa, V domains shown, 021 with X40 (LCDR2) A to S) VH: not shown VL: DIQLTQSPSSLSASVGDRVTITCRASQSISTYLNWYQQKPGKAPKLLIYSASSLQSGVPSRFSGSGSGTDFTLTISSLQPEDFATYYCQQSYSTPLTFGGGTKVDIKR",> 1.1
13,"antibody 021-M42 (antibody, human IgG1, kappa, V domains shown, 021 with X42 (LCDR2) S to A) VH: not shown VL: DIQLTQSPSSLSASVGDRVTITCRASQSISTYLNWYQQKPGKAPKLLIYAAASLQSGVPSRFSGSGSGTDFTLTISSLQPEDFATYYCQQSYSTPLTFGGGTKVDIKR",0.6 to 0.8
